According to the supplement of paper PMC10126150:
± gives the standard deviation of the averaged measurements.

System: ATP
Test: switch fluorescence ratio, 500 uM ATP over buffer (Cy3 cluster intensity, sum of 5 cycles each) (fold (ratio)); higher = stronger signal-on switching upon ATP binding; sequences stand for … in TCGTCGGCAGCGTCAGATGTGTATAAGAGACAGTTTTTTTTTTTTTTTTTTTTTTTTT…TC
Settings: aptamer strand: ATP DNA aptamer (quencher-CACCTGGGGGAGTATTGCGGAGGAAGG + anchor), 100 nM annealed; ATP concentration: 500 uM
Outline: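 Between each of five buffer/ATP cycles, the flow-cell was stripped with NaOH and re-annealed. Each cycle imaged Cy3-labelled switching-strand clusters, annealed to 100 nM quencher-labelled ATP aptamer on a modified Illumina MiSeq flow-cell, first in selection buffer and then after 15 min with 500 uM ATP at 22 °C. The fluorescence ratio is summed target-cycle over summed buffer-cycle Cy3 intensity per cluster, averaged per switch-domain sequence, with clusters outside 100-1000 RFU excluded.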
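Further: ATP exposure 15 min at 22 °C before imaging.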

Row | Sequence | switch fluorescence ratio
1 | AGGGCTGTGT | 0.999 ± 0.046
2 | TTGCTTGGAA | 0.992 ± 0.026
3 | CGTAAACTTG | 1.02 ± 0.023
4 | TGCAAATTGG | 0.992 ± 0.011
5 | TGAGGTATGC | 0.994 ± 0.031
6 | GATGGTTGGA | 0.9825 ± 0.0056
7 | GACATCCGGC | 1.05 ± 0.036
8 | CTGAGCGGCT | 1.05 ± 0.051
9 | GGGTGTGGGA | 0.997 ± 0.017
10 | GGTGGGGTTG | 1 ± 0.04
11 | GGGTTAAGCA | 0.9961 ± 0.0055
12 | CGTTTGGGTG | 1.02 ± 0.055
13 | ATATTTGGAG | 0.9981 ± 0.003
14 | GGGCAGGCGA | 1.011 ± 0.0077
15 | GAGTTTATTA | 0.994 ± 0.021
16 | AAAGGTCGAT | 0.986 ± 0.022
17 | TGTGTGAGT | 0.964 ± 0.013
18 | TGATGGCAGT | 1.02 ± 0.031
19 | CAGCTAGGTT | 1.31 ± 0.39
20 | ATTATTCACC | 1.01 ± 0.02
21 | AGAGAGGCTA | 1 ± 0.015
22 | GTGTATGTTT | 1.01 ± 0.028
23 | ACAACGCTTG | 1.01 ± 0.032

Row | Sequence | switch fluorescence ratio
24 | TGTCGGGGGT | 1.22 ± 0.18
25 | GGGGGTCAGT | 0.991 ± 0.01
26 | CGAACTTTTG | 0.984 ± 0.018
27 | TACTGAATGT | 1.02 ± 0.013
28 | TCTAAGGCCC | 0.986 ± 0.011
29 | AAGAGCGGGA | 0.989 ± 0.041
30 | ACGGGCTTTA | 1.03 ± 0.026
31 | TTATTTCAAG | 1.01 ± 0.064
32 | GTGGTAGGTT | 0.981 ± 0.027
33 | CTGTATTCAC | 1.04 ± 0.033
34 | AGGTTTGTTA | 0.987 ± 0.015
35 | CTAGATTCGT | 0.996 ± 0.017
36 | AAAAAAAGCA | 1.04 ± 0.05
37 | AGTATCAGAA | 1 ± 0.042
38 | ATCATTGGTA | 1 ± 0.023
39 | GGTTAAGGCG | 0.9569 ± 0.0079
40 | GTGGGGGAA | 0.994 ± 0.034
41 | TTTGGTGCCC | 1.03 ± 0.029
42 | GTATTTTTAG | 0.993 ± 0.033
43 | TGGGCGGTGT | 0.992 ± 0.037
44 | TTATAGGGTA | 1 ± 0.017
45 | AGTGCTTTTT | 1.01 ± 0.012
46 | GACCCTGATA | 0.987 ± 0.015

Row | Sequence | switch fluorescence ratio
47 | TTGAACGTTT | 0.974 ± 0.019
48 | TGGGAAATCT | 1.17 ± 0.25
49 | TTTTATGGGG | 0.968 ± 0.031
50 | GAGGGGGGCC | 1.01 ± 0.06
51 | GAAGCCGGAA | 1.04 ± 0.021
52 | CTGTTCTGGC | 0.962 ± 0.12
53 | AGGCGGGGTA | 0.9847 ± 0.0089
54 | GATCTACCCA | 1.028 ± 0.0089
55 | AGGGATGTTG | 0.995 ± 0.013
56 | AATTTCCTTT | 0.988 ± 0.036
57 | AGGAGGAGGC | 0.789 ± 0.23
58 | TTAGGAATGT | 1.03 ± 0.047
59 | GGGGATACAG | 0.995 ± 0.012
60 | CTATGGGATT | 0.983 ± 0.022
61 | AAAGTATCTT | 1.02 ± 0.037
62 | TGTGGCGGGA | 1.06 ± 0.13
63 | TTCGTGAATT | 1.11 ± 0.1
64 | AGCTGTTTC | 1 ± 0.018
65 | TATTCACTTG | 1.04 ± 0.025
66 | TCTTTTTCCT | 1.045 ± 0.0054
67 | GCTAATTGTG | 0.975 ± 0.0036
68 | CTGTATGTCA | 0.99 ± 0.0098
69 | GGTACTA | 1.02 ± 0.0021

Row | Sequence | switch fluorescence ratio
70 | ATTTAAGAAG | 0.99 ± 0.032
71 | GCATTCGGCT | 1.04 ± 0.069
72 | GGGGAAGGT | 1.04 ± 0.019
73 | GTAAGTGAGT | 0.994 ± 0.037
74 | CGTTCTGGGG | 0.984 ± 0.05
75 | GAGATTCTTG | 1 ± 0.02
76 | GGTTTCATGA | 1.01 ± 0.026
77 | GAGTGATTTA | 1.01 ± 0.035
78 | AGAGATTTAT | 0.988 ± 0.019
79 | AAAAAGTTAG | 0.998 ± 0.023
80 | AGCTGGGGGA | 1.05 ± 0.015
81 | GCCAACAGTG | 1.32 ± 0.12
82 | TGGCTCATAC | 1.45 ± 0.041
83 | TCACGGATGT | 1.04 ± 0.012
84 | ATTAAGGCTA | 0.983 ± 0.036
85 | GTCAGGGCGA | 0.9931 ± 0.0023
86 | AGGGGCTATA | 0.9703 ± 0.0061
87 | TAAATACTCT | 1.16 ± 0.032
88 | ACATCACTAA | 1.306 ± 0.0079
89 | TGGGCTGGTA | 0.972 ± 0.025
90 | TTTGGGCTGT | 1.02 ± 0.021
91 | ATGGTTTTG | 0.975 ± 0.047
92 | CGGGTTGGGG | 1 ± 0.016

Row | Sequence | switch fluorescence ratio
93 | GGGAGACTCG | 0.96678 ± 0.00026
94 | GATCTGTGCG | 0.972 ± 0.032
95 | GGGGCAGGCG | 1.07 ± 0.35
96 | TTTTTTTCAA | 1.01 ± 0.02
97 | TTGGCTCGCA | 1.11 ± 0.15
98 | CTGGGGCGTC | 0.993 ± 0.045
99 | CTCTACTCAA | 1.37 ± 0.031
100 | AGATGGGTTT | 1.01 ± 0.044
101 | TTAGTCCACT | 1.0047 ± 0.001
102 | AAGTTTAGTG | 0.976 ± 0.019
103 | GGGGGATCGT | 1.02 ± 0.035
104 | ACCTTCGGGT | 1.03 ± 0.028
105 | TTTATGTGTT | 0.984 ± 0.021
106 | GTCGTGTGGG | 0.996 ± 0.0025
107 | GGGCCTGAGG | 0.969 ± 0.028
108 | ACTCATTCGG | 1.01 ± 0.015
109 | GGTTAAGTGC | 1.01 ± 0.029
110 | CGAGTTTTTT | 1 ± 0.021
111 | ATGAGCATTC | 1.18 ± 0.026
112 | ACTGTCCCGT | 1.019 ± 0.0029
113 | TCAGTGTCCG | 0.966 ± 0.038
114 | GACTCGAAAA | 1.17 ± 0.16
115 | ATTAGAGGTT | 0.9898 ± 0.0094

Row | Sequence | switch fluorescence ratio
116 | CAAAATACGG | 1.07 ± 0.052
117 | ATTTCTGGGA | 0.982 ± 0.031
118 | CGGAATGGTA | 1.08 ± 0.067
119 | TGCCTTTGTA | 0.963 ± 0.013
120 | CGGGTAACGG | 1.035 ± 0.0014
121 | GTAAGGAAAG | 1.04 ± 0.062
122 | GACGGGGGGC | 1.02 ± 0.018
123 | TGGTTCCGGG | 1.01 ± 0.02
124 | CAATTAGGTC | 0.994 ± 0.024
125 | AGTGGGGTGG | 0.982 ± 0.043
126 | CCTCTGGCGC | 3.9 ± 0.3
127 | TTTGCATTCT | 1.004 ± 0.0078
128 | ACCAATAAAC | 1.09 ± 0.033
129 | ATTTGTGGTT | 0.9752 ± 0.0085
130 | GCGAAACAGG | 1.11 ± 0.06
131 | TTAAGTTTGT | 0.994 ± 0.022
132 | ACTCAAAACG | 1.11 ± 0.09
133 | TATGGTTCGC | 0.997 ± 0.055
134 | CGGGTAGTAC | 1.19 ± 0.03
135 | TTTATTTCTA | 0.981 ± 0.013
136 | GAGGTACGGG | 0.98966 ± 0.00039
137 | GATTGCGAGG | 0.9887 ± 0.0059
138 | GGACTGGCTA | 1.02 ± 0.035

Row | Sequence | switch fluorescence ratio
139 | GCCATGTGAA | 1.004 ± 0.0084
140 | GGTTTCCGCC | 1.169 ± 0.0023
141 | TGAGGAAATG | 1 ± 0.037
142 | CACGAAGGGT | 1.02 ± 0.018
143 | CCGAGAGAGC | 1.13 ± 0.04
144 | TAAATGGTGG | 0.977 ± 0.015
145 | ATTTATGTGC | 1.01 ± 0.025
146 | CGGATGTTGC | 1.03 ± 0.05
147 | CACGGCAGCT | 1.09 ± 0.02
148 | TATTTGTTAG | 0.997 ± 0.031
149 | GTGAGCTGAT | 1.023 ± 0.0081
150 | GGTATTGGGC | 0.9875 ± 0.0056
151 | TTCTGGGGAT | 1.009 ± 0.0014
152 | TGGGCGGGTT | 0.989 ± 0.032
153 | GTTCTATGC | 1 ± 0.079
154 | GGGGTAATTC | 1.06 ± 0.039
155 | TGGGTTCGCG | 0.988 ± 0.021
156 | TTTTTAGGGC | 1.02 ± 0.059
157 | ACCTGGTGTT | 1.23 ± 0.39
